Earlier results on 1 substance are cited in article PMC4376447.

The target in the series is S100A10 (Homo sapiens) (UniProt P60903). Briefly: ITC.
UniProt P60903, sequence (P60903 whole entry): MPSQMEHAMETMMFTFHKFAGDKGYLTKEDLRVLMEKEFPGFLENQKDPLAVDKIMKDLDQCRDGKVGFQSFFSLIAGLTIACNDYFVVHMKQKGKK

With “Annexin A2 N-terminus (from UniProt P07355)”, the Kd is 500 nM.
